Assay results reported in article PMC5591402.
Changes are numbered by the printed parent chain. In names and notes the source's numbering stands.

T1: TAMRA-labeled α-synuclein peptide
T1 chain: GYQDYEPEA

B1: N2.17 VHH F100fS (protein)
chain: QGQLVESGGGSVQAGGSLRLSCAASGIDSSSYCMGWFRQRPGKEREGVARINGWGGVKTAYADSVKDRFTISRDNAENTVYLQMNSLKPEDTAIYYCAAKSSPGYCGGTWSNFGYWGQGTQVTVSS
B2: N2.17 VHH W52bL (protein)
chain: B1 chain with W54L, S111F
B3: N2.17 VHH S96F (protein)
chain: B1 chain with S101F, S111F
B4: N2.17 VHH T100dS (protein)
chain: B1 chain with T109S, S111F
B5: N2.12 VHH T100dS (protein)
chain: B1 chain with A49G, G55R, V57I, T109S
B6: N2.12 VHH S96F (protein)
chain: B1 chain with A49G, G55R, V57I, S101F
B7: N2.12 VHH W52bL (protein)
chain: B1 chain with A49G, W54L, G55R, V57I
B8: N2.12 VHH G49A (protein)
chain: B1 chain with G55R, V57I
B9: N2.12 VHH R53G (protein)
chain: B1 chain with A49G, V57I

Target: T1, TAMRA-labeled α-synuclein peptide
Test: fluorescence polarization
Details: chain shown with the change;; parent: est. 8.6 x10^7 M^-1; read off a plot

Binder | Ka
B1 | 9.6 x10^7 M^-1
B2 | 3.3 x10^7 M^-1
B3 | 1.6 x10^7 M^-1
B4 | 3.8 x10^7 M^-1

Same assay, conditions: chain shown with the change;; parent: est. 13 x10^7 M^-1; read off a plot

Binder | Ka
B5 | 8.5 x10^7 M^-1
B6 | 6.7 x10^7 M^-1
B7 | 6.2 x10^7 M^-1
B8 | 13 x10^7 M^-1
B9 | 7.1 x10^7 M^-1
